Experimental findings from patent US11267868 (dated 2022) are described below.

As a reminder, the Kd is the constant that tells how readily two partners part at equilibrium. Low values mean tighter binding, high ones weaker binding.

Numbering of substitutions follows the chain as printed. Read-outs that look alike come from different tables or passages of the source.

Holding throughout (assay): SPR
Test [1] has as its target T1, FcgRIIb (human, UniProt P31994).
T1 chain: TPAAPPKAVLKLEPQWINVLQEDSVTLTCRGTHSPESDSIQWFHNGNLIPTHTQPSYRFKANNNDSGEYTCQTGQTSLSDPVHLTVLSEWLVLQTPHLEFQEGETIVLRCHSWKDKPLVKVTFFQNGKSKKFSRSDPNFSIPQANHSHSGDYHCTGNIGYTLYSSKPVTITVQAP

The target of test [2] is T2, FcgRIIIaV (human, UniProt P08637).
T2 sequence (P08637 17-208 F176V): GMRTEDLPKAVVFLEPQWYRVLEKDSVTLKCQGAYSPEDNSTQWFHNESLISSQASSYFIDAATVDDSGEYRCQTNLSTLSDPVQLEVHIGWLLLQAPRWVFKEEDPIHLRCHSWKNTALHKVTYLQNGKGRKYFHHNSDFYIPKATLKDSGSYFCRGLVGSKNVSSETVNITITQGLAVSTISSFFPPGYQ
Test [3] has as its target T3, FcgRIIaH (human, UniProt P12318).
T3 chain: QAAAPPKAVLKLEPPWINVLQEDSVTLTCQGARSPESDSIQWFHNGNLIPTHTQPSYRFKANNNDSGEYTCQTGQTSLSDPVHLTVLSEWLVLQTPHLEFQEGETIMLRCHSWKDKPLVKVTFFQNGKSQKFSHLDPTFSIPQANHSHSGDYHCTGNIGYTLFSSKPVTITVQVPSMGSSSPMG

Test [4] concerns the target T4, FcgRIIaR (human, UniProt P12318).
T4 chain: T3 chain with H134R

Test [5] deals with T5, FcgRIa (human, UniProt P12314).
T5 chain: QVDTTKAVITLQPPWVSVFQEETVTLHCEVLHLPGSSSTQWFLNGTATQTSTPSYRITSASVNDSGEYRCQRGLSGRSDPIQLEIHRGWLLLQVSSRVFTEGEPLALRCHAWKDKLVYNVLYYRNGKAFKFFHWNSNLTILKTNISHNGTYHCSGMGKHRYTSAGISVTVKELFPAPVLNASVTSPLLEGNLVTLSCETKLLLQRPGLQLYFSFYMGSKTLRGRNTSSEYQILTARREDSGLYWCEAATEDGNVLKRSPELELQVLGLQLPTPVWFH

Test [6] concerns the target T2, FcgRIIIaV. The source holds these as a separate data set.
In test [7] the target is T3, FcgRIIaH.
The target in test [8] is T1, FcgRIIb.
The target in test [9] is T5, FcgRIa.
For test [10], the target named is T4, FcgRIIaR.

B1: IL6R-P735/IL6R-L (antibody)
chain 1: QVQLQESGPGLVKPSETLSLTCAVSGHSISHDHAWSWVRQPPGEGLEWIGFISYSGITNYNPSLQGRVTISRDNSKNTLYLQMNSLRAEDTAVYYCARSLARTTAMDYWGEGTLVTVSSASTKGPSVFPLAPSSKSTSGGTAALGCLVKDYFPEPVTVSWNSGALTSGVHTFPAVLQSSGLYSLSSVVTVPSSSLGTQTYICNVNHKPSNTKVDKKVEPKSCDKTHTCPPCPAPELFGQDSVMLFPPKPKDTLMISRTPEVTCVVVDVSPEDPEVKFNWYVDGVEVHNAKTKPREEQENSTYRVVSVLTVLHQDWLNGKEYKCKVSNKALPHPIEKTISKAKGQPREPQVYTLPPSRDELTKNQVSLTCLVKGFYPSDIAVEWESNGQPENNYKTTPPVLDSDGSFFLYSKLTVDKSRWQQGNVFSCSVMHEALHNHYTQKSLSLSP
chain 2: not shown
Regarding B1, the Kd in [1] came to 2.3 µM; in [2], 73 µM; in test [3], 140 µM; in [4] it was 59 µM; in test [5] it was 0.26 µM.

B2: IL6R-P734/IL6R-L (antibody)
chain 1: B1 chain 1 with P270H, S326H
chain 2: not shown
Turning to B2, the dissociation constant (Kd) in test [1] is 2.5 µM; in [2], 100 µM; in [3], 84 µM; in test [4], 68 µM; in test [5], 0.22 µM.

B3: IL6R-P728/IL6R-L (antibody)
chain 1: B1 chain 1 with P270H, S326H, H332A
chain 2: not shown
Regarding B3, the Kd in test [1] is 3.9 µM; in [2], 50 µM; in test [3] it was 81 µM; in test [4], 74 µM; in test [5], 0.58 µM.

B4: IL6R-P726/IL6R-L (antibody)
chain 1: B1 chain 1 with F237L, P270H, S326H
chain 2: not shown
As to B4, the Kd in [1] was 4.1 µM; in test [2] it was 36 µM; in test [3], 61 µM; in test [4] it was 66 µM; in test [5] it was 0.19 µM.

B5: IL6R-P733/IL6R-L (antibody)
chain 1: B1 chain 1 with S326H, H332A
chain 2: not shown
Turning to B5, the dissociation constant (Kd) in test [1] was 4.7 µM; in test [2], 77 µM; in test [3], 180 µM; in test [4], 130 µM; in test [5], 2.5 µM.

B6: IL6R-P737/IL6R-L (antibody)
chain 1: B1 chain 1 with F237L, S326H
chain 2: not shown
Consider B6, for which the Kd in test [1] stood at 6.4 µM; in test [2] it was 68 µM; in [3], 160 µM; in [4], 120 µM; in [5] it was 0.17 µM.

B7: IL6R-P631/IL6R-L (antibody)
chain 1: QVQLQESGPGLVKPSETLSLTCAVSGHSISHDHAWSWVRQPPGEGLEWIGFISYSGITNYNPSLQGRVTISRDNSKNTLYLQMNSLRAEDTAVYYCARSLARTTAMDYWGEGTLVTVSSASTKGPSVFPLAPSSKSTSGGTAALGCLVKDYFPEPVTVSWNSGALTSGVHTFPAVLQSSGLYSLSSVVTVPSSSLGTQTYICNVNHKPSNTKVDKKVEPKSCDKTHTCPPCPAPDLLGGDSVFLFPPKPKDTLMISRTPEVTCVVINVAEEDGEVKFNWYVDGVEVHNAKTKPREEQYNSTYRVVSVLTVLHQDWLNGKEYKCKVSNKALPAPIEKTISKAKGQPREPQVYTLPPSRDELTKNQVSLTCLVKGFYPSDIAVEWESNGQPENNYKTTPPVLDSDGSFFLYSKLTVDKSRWQQGNVFSCSVMHEALHNHYTQKSLSLSP
chain 2: not shown
With B7, the Kd stood at 47 µM in test [6]; 96 µM in test [7]; 4.4 µM in test [8]; 0.011 µM in [9]; 26 µM in test [10].

B8: IL6R-P657/IL6R-L (antibody)
chain 1: B1 chain 1 with F237L, Q239G, P270H, H332Y
chain 2: not shown
Consider B8, for which the Kd in [1] was determined as 3.1 µM; in test [2], 65 µM; in [3], 110 µM; in test [4] it was 47 µM; in [5] it was 0.017 µM.

B9: IL6R-P690/IL6R-L (antibody)
chain 1: B1 chain 1 with F237L, P270H
chain 2: not shown
With B9, the dissociation constant Kd in [1] is 4 µM; in test [2], 63 µM; in test [3], 140 µM; in [4] it was 74 µM; in [5], 0.31 µM.

B10: IL6R-P691/IL6R-L (antibody)
chain 1: B1 chain 1 with P270H, H332A
chain 2: not shown
With B10, the Kd is 4.3 µM in [1]; 48 µM in test [2]; 130 µM in test [3]; 72 µM in test [4]; 0.76 µM in [5].

B11: IL6R-P658/IL6R-L (antibody)
chain 1: B1 chain 1 with Q239G, P270H, H332A
chain 2: not shown
As to B11, the dissociation constant Kd was determined as 1.4 µM in [1]; 71 µM in test [2]; 96 µM in [3]; 33 µM in test [4]; 0.83 µM in [5].

B12: IL6R-P732/IL6R-L (antibody)
chain 1: B1 chain 1 with Q239G, S326H, H332A
chain 2: not shown
In the case of B12, the dissociation constant (Kd) in test [1] was 2.9 µM; in test [2] it was 76 µM; in test [3], 100 µM; in test [4] it was 72 µM; in [5], 0.7 µM.

B13: IL6R-P661/IL6R-L (antibody)
chain 1: B1 chain 1 with F237L, Q239G, M243F, P270H, E298Y, S300A
chain 2: not shown
Take B13: the dissociation constant Kd worked out at 4 µM in [1]; 29 µM in [2]; 94 µM in [3]; 41 µM in test [4]; 0.01 µM in [5].

B14: IL6R-P655/IL6R-L (antibody)
chain 1: B1 chain 1 with F237L, Q239G, P270H, S326H, H332A
chain 2: not shown
With B14, the dissociation constant Kd is 2.7 µM in test [1]; 46 µM in test [2]; 58 µM in test [3]; 42 µM in test [4]; 0.018 µM in [5].

B15: IL6R-P605/IL6R-L (antibody)
chain 1: B1 chain 1 with F237L, Q239G, M243F, P270H, E298D, S300A, H332A
chain 2: not shown
On to B15, for which the Kd amounted to 5.3 µM in test [1]; 44 µM in test [2]; 130 µM in [3]; 60 µM in test [4]; 0.0086 µM in test [5].

B16: IL6R-P660/IL6R-L (antibody)
chain 1: B7 chain 1 with D235E, I266V, N267D, A269S, E270H, G273P, S300A, S326N
chain 2: not shown
Take B16: the Kd was 5.3 µM in test [1]; 30 µM in test [2]; 110 µM in [3]; 50 µM in [4]; 0.0074 µM in test [5].

B17: IL6R-P591/IL6R-L (antibody)
chain 1: B1 chain 1 with F237L, Q239G, P270H, H332A
chain 2: not shown
As to B17, the Kd in test [1] was 3.1 µM; in test [2] it was 44 µM; in test [3] it was 86 µM; in [4] it was 37 µM; in [5], 0.024 µM.

B18: IL6R-P727/IL6R-L (antibody)
chain 1: B1 chain 1 with F237L
chain 2: not shown
B18: the Kd was determined as 4.8 µM in [1]; 66 µM in [2]; 150 µM in [3]; 100 µM in test [4]; 0.23 µM in [5].

B19: IL6R-P731/IL6R-L (antibody)
chain 1: B1 chain 1 with F237L, S326H, H332A
chain 2: not shown
B19: the Kd in test [1] came to 10 µM; in test [2], 53 µM; in test [3], 150 µM; in [4], 110 µM; in test [5], 0.068 µM.

B20: IL6R-P653/IL6R-L (antibody)
chain 1: B1 chain 1 with F237L, Q239G, H332A
chain 2: not shown
As for B20, the Kd came out at 3.5 µM in [1]; 50 µM in test [2]; 110 µM in [3]; 51 µM in [4]; 0.018 µM in test [5].

B21: IL6R-P603/IL6R-L (antibody)
chain 1: B1 chain 1 with F237L, Q239G, P270H, V325I, H332A
chain 2: not shown
B21: the equilibrium dissociation constant (Kd) in test [1] came to 2.7 µM; in [2], 83 µM; in test [3] it was 110 µM; in [4], 47 µM; in [5] it was 0.022 µM.

B22: IL6R-P659/IL6R-L (antibody)
chain 1: B1 chain 1 with F237L, P270H, H332A
chain 2: not shown
With B22, the Kd in [1] was 6.4 µM; in test [2] it was 73 µM; in test [3] it was 160 µM; in test [4], 85 µM; in [5] it was 0.08 µM.

B23: IL6R-P687/IL6R-L (antibody)
chain 1: B1 chain 1 with F237L, Q239G, M243F, P270H, E298Y, S300A, S326N
chain 2: not shown
Turning to B23, the Kd came out at 5.1 µM in test [1]; 42 µM in test [2]; 130 µM in test [3]; 81 µM in [4]; 0.007 µM in test [5].
